{"source": "paper PMC4089491", "about": "“BuD, a helix–loop–helix DNA-binding domain for genome modification”", "key": {"AvrBs3 TALE": {"system": "AvrBs3 TALE", "test": "SPR", "conditions": "FA and ITC: 25 mM HEPES pH 8, 150 mM NaCl, 0.2 mM TCEP, 298 K, SPR: HBS-EP+ (10 mM HEPES pH 7.4, 150 mM NaCl, 3 mM EDTA, 0.05% P20)"}, "[1]": {"biological_target": "BurrH Variant1 (CAPNS1) (Burkholderia rhizoxinica) (UniProt E5AV36)", "test": "ITC", "conditions": "FA and ITC: 25 mM HEPES pH 8, 150 mM NaCl, 0.2 mM TCEP, 298 K, SPR: HBS-EP+ (10 mM HEPES pH 7.4, 150 mM NaCl, 3 mM EDTA, 0.05% P20)"}, "[2]": {"biological_target": "Variant1 ND (Burkholderia rhizoxinica) (UniProt E5AV36)", "test": "ITC", "conditions": "FA and ITC: 25 mM HEPES pH 8, 150 mM NaCl, 0.2 mM TCEP, 298 K, SPR: HBS-EP+ (10 mM HEPES pH 7.4, 150 mM NaCl, 3 mM EDTA, 0.05% P20)"}, "[3]": {"biological_target": "Variant4 ND (Burkholderia rhizoxinica) (UniProt E5AV36)", "test": "ITC", "conditions": "FA and ITC: 25 mM HEPES pH 8, 150 mM NaCl, 0.2 mM TCEP, 298 K, SPR: HBS-EP+ (10 mM HEPES pH 7.4, 150 mM NaCl, 3 mM EDTA, 0.05% P20)"}, "[4]": {"biological_target": "BurrH Variant4 (RAG1) (Burkholderia rhizoxinica) (UniProt E5AV36)", "test": "ITC", "conditions": "FA and ITC: 25 mM HEPES pH 8, 150 mM NaCl, 0.2 mM TCEP, 298 K, SPR: HBS-EP+ (10 mM HEPES pH 7.4, 150 mM NaCl, 3 mM EDTA, 0.05% P20)"}, "BurrH [5]": {"biological_target": "T1, BurrH (Burkholderia rhizoxinica, UniProt E5AV36 1-771)", "T1 sequence": "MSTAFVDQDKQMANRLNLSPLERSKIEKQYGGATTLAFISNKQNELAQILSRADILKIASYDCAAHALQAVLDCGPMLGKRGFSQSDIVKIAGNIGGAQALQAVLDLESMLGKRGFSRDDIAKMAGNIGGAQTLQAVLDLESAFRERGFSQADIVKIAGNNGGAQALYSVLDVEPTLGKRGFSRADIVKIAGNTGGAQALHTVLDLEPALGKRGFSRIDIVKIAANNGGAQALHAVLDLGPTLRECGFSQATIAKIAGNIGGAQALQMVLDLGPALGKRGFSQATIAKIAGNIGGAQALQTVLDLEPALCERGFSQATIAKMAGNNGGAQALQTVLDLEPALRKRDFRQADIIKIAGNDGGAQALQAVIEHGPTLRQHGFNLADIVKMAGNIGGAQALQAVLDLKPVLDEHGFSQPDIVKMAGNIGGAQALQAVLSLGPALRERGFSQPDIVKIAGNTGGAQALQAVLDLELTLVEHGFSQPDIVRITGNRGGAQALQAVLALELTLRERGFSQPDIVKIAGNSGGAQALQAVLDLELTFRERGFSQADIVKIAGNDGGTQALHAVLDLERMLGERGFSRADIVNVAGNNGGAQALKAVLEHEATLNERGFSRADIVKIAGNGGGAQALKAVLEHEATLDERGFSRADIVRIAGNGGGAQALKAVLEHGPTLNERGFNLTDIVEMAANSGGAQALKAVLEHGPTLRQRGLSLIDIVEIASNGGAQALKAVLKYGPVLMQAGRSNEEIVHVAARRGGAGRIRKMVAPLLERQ", "test": "SPR", "conditions": "FA and ITC: 25 mM HEPES pH 8, 150 mM NaCl, 0.2 mM TCEP, 298 K, SPR: HBS-EP+ (10 mM HEPES pH 7.4, 150 mM NaCl, 3 mM EDTA, 0.05% P20)"}, "[6]": {"biological_target": "Variant3 ND (Burkholderia rhizoxinica) (UniProt E5AV36)", "test": "ITC", "conditions": "FA and ITC: 25 mM HEPES pH 8, 150 mM NaCl, 0.2 mM TCEP, 298 K, SPR: HBS-EP+ (10 mM HEPES pH 7.4, 150 mM NaCl, 3 mM EDTA, 0.05% P20)"}, "[7]": {"biological_target": "BurrH Variant3 (RAG1) (Burkholderia rhizoxinica) (UniProt E5AV36)", "test": "ITC", "conditions": "FA and ITC: 25 mM HEPES pH 8, 150 mM NaCl, 0.2 mM TCEP, 298 K, SPR: HBS-EP+ (10 mM HEPES pH 7.4, 150 mM NaCl, 3 mM EDTA, 0.05% P20)"}, "[8]": {"biological_target": "BurrH Variant2 (CAPNS1) (Burkholderia rhizoxinica) (UniProt E5AV36)", "test": "ITC", "conditions": "FA and ITC: 25 mM HEPES pH 8, 150 mM NaCl, 0.2 mM TCEP, 298 K, SPR: HBS-EP+ (10 mM HEPES pH 7.4, 150 mM NaCl, 3 mM EDTA, 0.05% P20)"}, "[9]": {"biological_target": "Variant2 ND (Burkholderia rhizoxinica) (UniProt E5AV36)", "test": "ITC", "conditions": "FA and ITC: 25 mM HEPES pH 8, 150 mM NaCl, 0.2 mM TCEP, 298 K, SPR: HBS-EP+ (10 mM HEPES pH 7.4, 150 mM NaCl, 3 mM EDTA, 0.05% P20)"}, "BurrH [10]": {"biological_target": "T1, BurrH", "test": "ITC; FA and ITC: 25 mM HEPES pH 8, 150 mM NaCl, 0.2 mM TCEP, 298 K; SPR: HBS-EP+ (10 mM HEPES pH 7.4, 150 mM NaCl, 3 mM EDTA, 0.05% P20), 298 K", "conditions": "protein: recombinant"}, "BurrH [11]": {"biological_target": "T1, BurrH", "test": "fluorescence anisotropy; FA and ITC: 25 mM HEPES pH 8, 150 mM NaCl, 0.2 mM TCEP, 298 K; SPR: HBS-EP+ (10 mM HEPES pH 7.4, 150 mM NaCl, 3 mM EDTA, 0.05% P20), 298 K", "conditions": "protein: recombinant; label: 5' 6-FAM"}}}
{"molecule": "AvrBs3 target, SPR duplex", "values": [{"measurement": "Kd", "setting": "AvrBs3 TALE", "value": 0.22, "unit": "nM"}]}
{"molecule": "TTGGCTCTGTGGGCTCGGGTCTA (double strand) [V1 target]", "values": [{"measurement": "Kd", "setting": "[1]", "value": 29, "unit": "nM"}, {"measurement": "Kd", "setting": "[2]", "value": 29, "unit": "nM"}]}
{"molecule": "TTGTATATATTTAAGCACTTATA (double strand) [V4 target]", "values": [{"measurement": "Kd", "setting": "[3]", "value": 14, "unit": "nM"}, {"measurement": "Kd", "setting": "[4]", "value": 12, "unit": "nM"}]}
{"molecule": "BurrH target, SPR duplex", "values": [{"measurement": "Kd", "setting": "AvrBs3 TALE", "value": 1000, "unit": "nM"}, {"measurement": "Kd", "setting": "BurrH [5]", "value": 0.36, "unit": "nM"}]}
{"molecule": "TTCAGTGTTTATGGTTACTTATA (double strand) [V3 target]", "values": [{"measurement": "Kd", "setting": "[6]", "value": 26, "unit": "nM"}, {"measurement": "Kd", "setting": "[7]", "value": 30, "unit": "nM"}]}
{"molecule": "TTTTGTCCGGGAACCCAGAGCTA (double strand) [V2 target]", "values": [{"measurement": "Kd", "setting": "[8]", "value": 149, "unit": "nM"}, {"measurement": "Kd", "setting": "[9]", "value": 215, "unit": "nM"}]}
{"molecule": "BurrH target G0 (dsDNA) DNA 1: TGAAGAGAAGCAAATACGTTATA DNA 2: TATAACGTATTTGCTTCTCTTCA", "values": [{"measurement": "Kd", "setting": "BurrH [10]", "value": "24 ± 6.3", "unit": "nM"}]}
{"molecule": "FA duplex 3 (G4 G12 A13) (dsDNA) DNA 1: TTAAGGGAAGCAAGAACGTTATA DNA 2: TATAACGTTCTTGCTTCCCTTAA", "values": [{"measurement": "Kd", "setting": "BurrH [11]", "value": "81 ± 12", "unit": "nM"}]}
{"molecule": "BurrH target C0 (dsDNA) DNA 1: TCAAGAGAAGCAAATACGTTATA DNA 2: TATAACGTATTTGCTTCTCTTGA", "values": [{"measurement": "Kd", "setting": "BurrH [10]", "value": "15 ± 3.2", "unit": "nM"}]}
{"molecule": "FA duplex 5 (A4 A12 T13) (dsDNA) DNA 1: TTAAGAGAAGCAAATACGTTATA DNA 2: TATAACGTATTTGCTTCTCTTAA", "values": [{"measurement": "Kd", "setting": "BurrH [11]", "value": "32 ± 7", "unit": "nM"}]}
{"molecule": "FA duplex 11 (G4 G12 G13) (dsDNA) DNA 1: TTAAGGGAAGCAAGGACGTTATA DNA 2: TATAACGTCCTTGCTTCCCTTAA", "values": [{"measurement": "Kd", "setting": "BurrH [11]", "value": "90 ± 12", "unit": "nM"}]}
{"molecule": "FA duplex 12 (T4 T12 G13) (dsDNA) DNA 1: TTAAGTGAAGCAATGACGTTATA DNA 2: TATAACGTCATTGCTTCACTTAA", "values": [{"measurement": "Kd", "setting": "BurrH [11]", "value": "63 ± 5", "unit": "nM"}]}
{"molecule": "BurrH DNA target/RNA hybrid (DNA:RNA) DNA: TTAAGAGAAGCAAATACGTTATA RNA: UAUAACGUAUUUGCAACUCUUAA", "values": [{"measurement": "Kd", "setting": "BurrH [10]; blunt", "value": "56 ± 6.5", "unit": "nM"}]}
{"molecule": "FA duplex 13 (A4 A12 C13) (dsDNA) DNA 1: TTAAGAGAAGCAAACACGTTATA DNA 2: TATAACGTGTTTGCTTCTCTTAA", "values": [{"measurement": "Kd", "setting": "BurrH [11]", "value": "39 ± 10", "unit": "nM"}]}
{"molecule": "BurrH RNA target/DNA hybrid (DNA:RNA) RNA: UUAAGAGAAGCAAAUACGUUAUA DNA: TATAACGTATTTGCAACTCTTAA", "values": [{"measurement": "Kd", "setting": "BurrH [10]; blunt", "value": "1890 ± 438", "unit": "nM"}]}
{"molecule": "FA duplex 7 (G4 G12 T13) (dsDNA) DNA 1: TTAAGGGAAGCAAGTACGTTATA DNA 2: TATAACGTACTTGCTTCCCTTAA", "values": [{"measurement": "Kd", "setting": "BurrH [11]", "value": "42 ± 7", "unit": "nM"}]}
{"molecule": "FA duplex 14 (C4 C12 C13) (dsDNA) DNA 1: TTAAGCGAAGCAACCACGTTATA DNA 2: TATAACGTGGTTGCTTCGCTTAA", "values": [{"measurement": "Kd", "setting": "BurrH [11]", "value": "47 ± 5", "unit": "nM"}]}
{"molecule": "FA duplex 1 (A4 A12 A13) (dsDNA) DNA 1: TTAAGAGAAGCAAAAACGTTATA DNA 2: TATAACGTTTTTGCTTCTCTTAA", "values": [{"measurement": "Kd", "setting": "BurrH [11]", "value": "40 ± 3", "unit": "nM"}]}
{"molecule": "FA duplex 9 (A4 A12 G13) (dsDNA) DNA 1: TTAAGAGAAGCAAAGACGTTATA DNA 2: TATAACGTCTTTGCTTCTCTTAA", "values": [{"measurement": "Kd", "setting": "BurrH [11]", "value": "35 ± 6", "unit": "nM"}]}
{"molecule": "BurrH DNA target duplex (dsDNA) DNA 1: TTAAGAGAAGCAAATACGTTATA DNA 2: TATAACGTATTTGCTTCTCTTAA", "values": [{"measurement": "Kd", "setting": "BurrH [10]", "value": "25 ± 4.3", "unit": "nM"}]}
{"molecule": "FA duplex 6 (C4 C12 T13) (dsDNA) DNA 1: TTAAGCGAAGCAACTACGTTATA DNA 2: TATAACGTAGTTGCTTCGCTTAA", "values": [{"measurement": "Kd", "setting": "BurrH [11]", "value": "43 ± 10", "unit": "nM"}]}
{"molecule": "FA duplex 2 (C4 C12 A13) (dsDNA) DNA 1: TTAAGCGAAGCAACAACGTTATA DNA 2: TATAACGTTGTTGCTTCGCTTAA", "values": [{"measurement": "Kd", "setting": "BurrH [11]", "value": "44 ± 9", "unit": "nM"}]}
{"molecule": "FA duplex 4 (T4 T12 A13) (dsDNA) DNA 1: TTAAGTGAAGCAATAACGTTATA DNA 2: TATAACGTTATTGCTTCACTTAA", "values": [{"measurement": "Kd", "setting": "BurrH [11]", "value": "61 ± 8", "unit": "nM"}]}
{"molecule": "FA duplex 10 (C4 C12 G13) (dsDNA) DNA 1: TTAAGCGAAGCAACGACGTTATA DNA 2: TATAACGTCGTTGCTTCGCTTAA", "values": [{"measurement": "Kd", "setting": "BurrH [11]", "value": "49 ± 10", "unit": "nM"}]}
{"molecule": "FA duplex 15 (G4 G12 C13) (dsDNA) DNA 1: TTAAGGGAAGCAAGCACGTTATA DNA 2: TATAACGTGCTTGCTTCCCTTAA", "values": [{"measurement": "Kd", "setting": "BurrH [11]", "value": "59 ± 6", "unit": "nM"}]}
{"molecule": "BurrH target A0 (dsDNA) DNA 1: TAAAGAGAAGCAAATACGTTATA DNA 2: TATAACGTATTTGCTTCTCTTTA", "values": [{"measurement": "Kd", "setting": "BurrH [10]", "value": "15 ± 2.8", "unit": "nM"}]}
